Drawing on PMC2787366, this text covers Kd and fold weaker than with the H3K9me3 peptide for one molecule.

Common to all, as to experiment: fluorescence polarisation
The target in test [1] is G9aK185me3 peptide (fluorescence polarization).
Test [2] concerns the target H3 peptide dimethylated on lysine 9 (fluorescence polarization).
Test [3] addresses H3K9me3 peptide (fluorescence polarization).

B1: hCDYL1b chromodomain (1–78 aa) (domain or fragment)
chain: MASEELYEVERIVDKRKNKKGKTEYLVRWKGYDSEDDTWEPEQHLVNCEEYIHDFNRRHTEKQKESTLTRTNRTSPNN
On to B1, for which the Kd (as a rule, the concentration at which binding is half-saturated) in test [1] was 8 µM; in test [3] it was 2 µM. The molecule also came in with a fold weaker than with the H3K9me3 peptide in test [2] of 1.5 fold.
